Measured values as given in patent US20190177431A1 (FUDAN UNIVERSITY, published 2019).

Columns and labels:
[1] = target: T1, human TF on the cell surface of tumor cells (human, UniProt P13726 33-295); test: flow cytometry on MDA-MB-231 cells, antibody at 10 µg/mL; set-up: reference not given here
T1 construct: whole, on cells; Endogenous TF on TF-positive human tumor cell lines; also called cell surface TF
Procedure: (§1) The cells were washed with PBS twice to remove the unbound primary antibody, and the target cells were incubated with 200 μL PE-labeled secondary antibody (2 μg/mL) at 4° C. for 30 min. The cells were washed with PBS twice to remove the unbound secondary antibody, and finally the cells were re-suspended in 400 μL PBS.

[2] = target: T1, human TF on the cell surface of tumor …; test: flow cytometry on MDA-MB-231 cells, antibody at 1 µg/mL
Procedure: as §1

[3] = target: T2, extracellular domain of human TF protein (human, UniProt P13726 34-251); test: ELISA, coated TF extracellular domain
T2 construct: range 34-251; Limits 34-251 are stated for the immunogen; also called the extracellular domain protein of TF; TF antigen
Procedure: The antigen (the extracellular domain protein of TF) was diluted to 0.5 μg/mL with a coating solution, and was used to coat an ELISA plate overnight, at 100 μL/well and 4° C. The excessive antigen was removed by washing. The plate was blocked with 2% BSA at room temperature for 2 h, and then each of the 3-fold serial diluted monoclonal antibodies was added at 100 μL/well, and was incubated for 2 h at room temperature. The unbound antibodies were removed by washing, and an appropriate concentration of horseradish peroxidase-labeled anti-mouse secondary antibody was added at 100 μL/well, and incubated for 1 h at room temperature. The unbound secondary antibody was removed by washing, TMB chromogenic solution was added, and the color was developed to an appropriate color depth. 2M H₂SO₄ was added at 50 μL/well, to stop the chromogenic reaction, the absorbance at 450 nm was then determined, and the data was analyzed.
Firstly, the 20 humanized antibodies were determined for their affinity for the extracellular domain protein of TF by ELISA binding assay (The experimental method refers to Step \textcircled{4} of Example 1).

Row | Binder | MFI [1] | MFI [2] | EC50 [3] [nM]
1 | TF-mAb-H30 (antibody, V domains shown, Humanized) VH: EVQLVQSGAEVKKPGESLKISCKGSGYSFTSYWMNWVRQMPGKGLEWMGMIYPADSETRLNQKFKDKATLSVDKSISTAYLQWSSLKASDTAMYYCAREDYGSSDYWGQGTTVTVSS VL: EIVLTQSPATLSLSPGERATLSCSASSSVSYMNWYQQKPGQAPRIWIYGISNLASGIPARFSGSGSGTDFTLTISSLEPEDFAVYYCQQKSSFPWTFGGGTKVEIK | 3240 | 2930 | 0.0147
2 | TF-mAb-H45 (antibody, V domains shown, Humanized) VH: EVQLVQSGAEVKKPGESLKISCKGSGYSFTSYWMNWVRQMPGKGLEWMGMIYPADSETRLNQKFKDKATLSVDKSISTAYLQWSSLKASDTAMYYCAREDYGSSDYWGQGTTVTVSS VL: EIVLTQSPDFQSVTPKEKVTITCSASSSVSYMNWYQQKPDQSPKIWIYGISNLASGVPSRFSGSGSGTDFTLTINSLEAEDAATYYCQQKSSFPWTFGGGTKVEIK | 3480 | 3100 | 0.0138
3 | TF-mAb-H32 (antibody, V domains shown, Humanized) VH: QVQLVQSGAEVKKPGASVKVSCKASGYSFISYWMNWVRQAPGQGLEWIGMIYPADSETRLNQKFKDRATLTVDKSTSTAYMELSSLRSEDTAVYYCAREDYGSSDYWGQGTTVTVSS VL: EIVLTQSPATLSLSPGERATLSCSASSSVSYMNWYQQKPGQAPRIWIYGISNLASGIPARFSGSGSGTDFTLTISSLEPEDFAVYYCQQKSSFPWTFGGGTKVEIK | 3010 | 2400 | 0.0168
4 | TF-mAb-H40 (antibody, V domains shown, Humanized) VH: EVQLVQSGAEVKKPGESLKISCKGSGYSFTSYWMNWVRQMPGKGLEWMGMIYPADSETRLNQKFKDKATLSVDKSISTAYLQWSSLKASDTAMYYCAREDYGSSDYWGQGTTVTVSS VL: DIQLTQSPSSLSASVGDRVTITCSASSSVSYMNWYQQKPGKSPKIWIYGISNLASGVPSRFSGSGSGTDFTLTISSLQPEDFATYYCQQKSSFPWTFGGGTKVEIK | 3310 | 3180 | 0.0131
5 | TF-mAb-H29 (antibody, V domains shown, Humanized) VH: EVQLVQSGAEVKKPGESLKISCKGSGYSFTSYWMNWVRQMPGKGLEWMGMIYPADSETRLNQKFKDQATLSVDKSISTAYLQWSSLKASDTAMYYCAREDYGSSDYWGQGTTVTVSS VL: EIVLTQSPATLSLSPGERATLSCSASSSVSYMNWYQQKPGQAPRIWIYGISNLASGIPARFSGSGSGTDFTLTISSLEPEDFAVYYCQQKSSFPWTFGGGTKVEIK | 3580 | 2960 | 0.0178
6 | TF-mAb-H31 (antibody, V domains shown, Humanized) VH: EVQLVQSGAEVKKPGESLKISCKGSGYSFTSYWMNWVKQMPGKGLEWMGMIYPADSETRLNQKFKDKATLSVDKSISTAYLQWSSLKASDTAMYYCAREDYGSSDYWGQGTTVTVSS VL: EIVLTQSPATLSLSPGERATLSCSASSSVSYMNWYQQKPGQAPRIWIYGISNLASGIPARFSGSGSGTDFTLTISSLEPEDFAVYYCQQKSSFPWTFGGGTKVEIK | 3470 | 3080 | 0.0145
7 | TF-mAb-H42 (antibody, V domains shown, Humanized) VH: QVQLVQSGAEVKKPGASVKVSCKASGYSFISYWMNWVRQAPGQGLEWIGMIYPADSETRLNQKFKDRATLTVDKSTSTAYMELSSLRSEDTAVYYCAREDYGSSDYWGQGTTVTVSS VL: DIQLTQSPSSLSASVGDRVTITCSASSSVSYMNWYQQKPGKSPKIWIYGISNLASGVPSRFSGSGSGTDFTLTISSLQPEDFATYYCQQKSSFPWTFGGGTKVEIK | 3350 | 2970 | 0.0128

Now from value to binder:

Row | MFI [1] | MFI [2] | EC50 [3] [nM] | Binder
8 | 3150 | 2870 | 0.0178 | TF-mAb-H38 (antibody, V domains shown, Humanized) VH: QVQLVQSGSELKKPGASVKVSCKASGYSFISYWMNWVRQAPGQGLEWIGMIYPADSETRLNQKFKDRAVLSVDKSVSTAYLQICSLKAEDTAVYYCAREDYGSSDYWGQGTTVTVSS VL: EIVLTQSPATLSLSPGERATLSCSASSSVSYMNWYQQKPGQSPRIWIYGISNLASGVPARFSGSGSGTDFTLTISSLEPEDFAVYYCQQKSSFPWTFGGGTKVEIK
9 | 3270 | 2460 | 0.0154 | TF-mAb-H34 (antibody, V domains shown, Humanized) VH: EVQLVQSGAEVKKPGESLKISCKGSGYSFTSYWMNWVRQMPGKGLEWMGMIYPADSETRLNQKFKDQATLSVDKSISTAYLQWSSLKASDTAMYYCAREDYGSSDYWGQGTTVTVSS VL: EIVLTQSPATLSLSPGERATLSCSASSSVSYMNWYQQKPGQSPRIWIYGISNLASGVPARFSGSGSGTDFTLTISSLEPEDFAVYYCQQKSSFPWTFGGGTKVEIK
10 | 3020 | 2930 | 0.0105 | TF-mAb-H35 (antibody, V domains shown, Humanized) VH: EVQLVQSGAEVKKPGESLKISCKGSGYSFTSYWMNWVRQMPGKGLEWMGMIYPADSETRLNQKFKDKATLSVDKSISTAYLQWSSLKASDTAMYYCAREDYGSSDYWGQGTTVTVSS VL: EIVLTQSPATLSLSPGERATLSCSASSSVSYMNWYQQKPGQSPRIWIYGISNLASGVPARFSGSGSGTDFTLTISSLEPEDFAVYYCQQKSSFPWTFGGGTKVEIK
11 | 3610 | 3000 | 0.0134 | TF-mAb-H41 (antibody, V domains shown, Humanized) VH: EVQLVQSGAEVKKPGESLKISCKGSGYSFTSYWMNWVKQMPGKGLEWMGMIYPADSETRLNQKFKDKATLSVDKSISTAYLQWSSLKASDTAMYYCAREDYGSSDYWGQGTTVTVSS VL: DIQLTQSPSSLSASVGDRVTITCSASSSVSYMNWYQQKPGKSPKIWIYGISNLASGVPSRFSGSGSGTDFTLTISSLQPEDFATYYCQQKSSFPWTFGGGTKVEIK
12 | 3090 | 3040 | 0.0234 | TF-mAb-H36 (antibody, V domains shown, Humanized) VH: EVQLVQSGAEVKKPGESLKISCKGSGYSFTSYWMNWVKQMPGKGLEWMGMIYPADSETRLNQKFKDKATLSVDKSISTAYLQWSSLKASDTAMYYCAREDYGSSDYWGQGTTVTVSS VL: EIVLTQSPATLSLSPGERATLSCSASSSVSYMNWYQQKPGQSPRIWIYGISNLASGVPARFSGSGSGTDFTLTISSLEPEDFAVYYCQQKSSFPWTFGGGTKVEIK
13 | 3430 | 3200 | 0.012 | TF-mAb-H44 (antibody, V domains shown, Humanized; also called humanized antibody TF-mAb-H44) VH: EVQLVQSGAEVKKPGESLKISCKGSGYSFTSYWMNWVRQMPGKGLEWMGMIYPADSETRLNQKFKDQATLSVDKSISTAYLQWSSLKASDTAMYYCAREDYGSSDYWGQGTTVTVSS VL: EIVLTQSPDFQSVTPKEKVTITCSASSSVSYMNWYQQKPDQSPKIWIYGISNLASGVPSRFSGSGSGTDFTLTINSLEAEDAATYYCQQKSSFPWTFGGGTKVEIK
14 | 3380 | 3180 | 0.0125 | TF-mAb-H39 (antibody, V domains shown, Humanized; also called humanized antibody TF-mAb-H39) VH: EVQLVQSGAEVKKPGESLKISCKGSGYSFTSYWMNWVRQMPGKGLEWMGMIYPADSETRLNQKFKDQATLSVDKSISTAYLQWSSLKASDTAMYYCAREDYGSSDYWGQGTTVTVSS VL: DIQLTQSPSSLSASVGDRVTITCSASSSVSYMNWYQQKPGKSPKIWIYGISNLASGVPSRFSGSGSGTDFTLTISSLQPEDFATYYCQQKSSFPWTFGGGTKVEIK
15 | 2840 | 2420 | 0.0189 | TF-mAb-H33 (antibody, V domains shown, Humanized) VH: QVQLVQSGSELKKPGASVKVSCKASGYSFISYWMNWVRQAPGQGLEWIGMIYPADSETRLNQKFKDRAVLSVDKSVSTAYLQICSLKAEDTAVYYCAREDYGSSDYWGQGTTVTVSS VL: EIVLTQSPATLSLSPGERATLSCSASSSVSYMNWYQQKPGQAPRIWIYGISNLASGIPARFSGSGSGTDFTLTISSLEPEDFAVYYCQQKSSFPWTFGGGTKVEIK
16 | 2990 | 2460 | 0.0173 | TF-mAb-H37 (antibody, V domains shown, Humanized) VH: QVQLVQSGAEVKKPGASVKVSCKASGYSFISYWMNWVRQAPGQGLEWIGMIYPADSETRLNQKFKDRATLTVDKSTSTAYMELSSLRSEDTAVYYCAREDYGSSDYWGQGTTVTVSS VL: EIVLTQSPATLSLSPGERATLSCSASSSVSYMNWYQQKPGQSPRIWIYGISNLASGVPARFSGSGSGTDFTLTISSLEPEDFAVYYCQQKSSFPWTFGGGTKVEIK
17 | 3300 | 2820 | 0.0116 | TF-mAb-H43 (antibody, V domains shown, Humanized) VH: QVQLVQSGSELKKPGASVKVSCKASGYSFISYWMNWVRQAPGQGLEWIGMIYPADSETRLNQKFKDRAVLSVDKSVSTAYLQICSLKAEDTAVYYCAREDYGSSDYWGQGTTVTVSS VL: DIQLTQSPSSLSASVGDRVTITCSASSSVSYMNWYQQKPGKSPKIWIYGISNLASGVPSRFSGSGSGTDFTLTISSLQPEDFATYYCQQKSSFPWTFGGGTKVEIK
